Drawing on paper PMC9352680, “A comprehensive thermodynamic model for RNA binding by the Saccharomyces cerevisiae Pumilio protein PUF4”, this text covers Kd for 48 molecules.

Sequences and labels used below:
T1: PUF4 RNA-binding domain (Saccharomyces cerevisiae, UniProt P25339 537-888)
T1 sequence: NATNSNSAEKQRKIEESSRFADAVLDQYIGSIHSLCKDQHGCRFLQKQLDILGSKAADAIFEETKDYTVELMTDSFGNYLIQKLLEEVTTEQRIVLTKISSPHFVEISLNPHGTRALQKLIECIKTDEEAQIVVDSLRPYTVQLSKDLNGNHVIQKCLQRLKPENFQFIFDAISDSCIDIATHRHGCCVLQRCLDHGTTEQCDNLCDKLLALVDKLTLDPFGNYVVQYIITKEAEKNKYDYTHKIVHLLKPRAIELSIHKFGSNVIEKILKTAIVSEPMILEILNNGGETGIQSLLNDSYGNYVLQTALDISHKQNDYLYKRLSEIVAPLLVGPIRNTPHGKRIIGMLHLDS

B1: Ia_S2_P5E.1_K5.1_C5.1_H5.1_A5.1_[A7C]_F5.1_T5.1 (ssRNA)
RNA: UUUGAUUAAUAUGAUAUCGUUCUUUCUUGUAUUCUUAUUCUUUCUCGAUAUCAUAUUAAUCUUU
B2: Ia_S2_P5E.1_K5.1_C5.1_H5.1_A5.1_[A7T]_F5.1_T5.1 (ssRNA)
RNA: UUUGAUUAAUAUGAUAUCGUUCUUUCUUGUAUUUUUAUUCUUUCUCGAUAUCAUAUUAAUCUUU
B3: Ib_S4_P3E.1_K3.1_C3.1_H3.1_A3.1_F3.1_[T7G]_[A8C]_T3.1 (ssRNA)
RNA: UUUGACAACUGAUCGUUCUUUCUUGUAUAGCUUCUUUCUCGAUCAGUUGUCUUU
B4: Ic_S4_P3E.1_K3.1_C3.1_H3.1_A3.1_[T5A]_F3.1_[A8G]_T3.1 (ssRNA)
RNA: UUUGACAACUGAUCGUUCUUUCUUGUAAAUGUUCUUUCUCGAUCAGUUGUCUUU
B5: Ic_S4_P3E.1_K3.1_C3.1_H3.1_A3.1_[A6G]_F3.1_[A8T]_T3.1 (ssRNA)
RNA: UUUGACAACUGAUCGUUCUUUCUUGUAUGUUUUCUUUCUCGAUCAGUUGUCUUU
B6: Ib_S4_P3E.1_K3.1_C3.1_H3.1_[T1A]_A3.1_F3.1_[T7C]_T3.1 (ssRNA)
RNA: UUUGACAACUGAUCGUUCUUUCUAGUAUACAUUCUUUCUCGAUCAGUUGUCUUU
B7: Ib_S4_P3E.1_K3.1_C3.1_H3.1_[G2C]_[A4G]_A3.1_F3.1_T3.1 (ssRNA)
RNA: UUUGACAACUGAUCGUUCUUUCUUCUGUAUAUUCUUUCUCGAUCAGUUGUCUUU
B8: Ib_S4_P3E.1_K3.1_C3.1_H3.1_[G2C]_A3.1_F3.1_[A8T]_T3.1 (ssRNA)
RNA: UUUGACAACUGAUCGUUCUUUCUUCUAUAUUUUCUUUCUCGAUCAGUUGUCUUU
B9: Ib_S4_P3E.1_K3.1_C3.1_H3.1_A3.1_[A6G]_F3.1_[A8G]_T3.1 (ssRNA)
RNA: UUUGACAACUGAUCGUUCUUUCUUGUAUGUGUUCUUUCUCGAUCAGUUGUCUUU
B10: Ib_S4_P3E.1_K3.1_C3.1_H3.1_[T1G]_A3.1_F3.1_[A8T]_T3.1 (ssRNA)
RNA: UUUGACAACUGAUCGUUCUUUCUGGUAUAUUUUCUUUCUCGAUCAGUUGUCUUU
B11: Ib_S4_P3E.1_K3.1_C3.1_H3.1_A3.1_[A6T]_F3.1_[A8C]_T3.1 (ssRNA)
RNA: UUUGACAACUGAUCGUUCUUUCUUGUAUUUCUUCUUUCUCGAUCAGUUGUCUUU
B12: Ib_S4_P3E.1_K3.1_C3.1_H3.1_[A4C]_A3.1_F3.1_[T7C]_T3.1 (ssRNA)
RNA: UUUGACAACUGAUCGUUCUUUCUUGUCUACAUUCUUUCUCGAUCAGUUGUCUUU
B13: Ib_S4_P3E.1_K3.1_C3.1_H3.1_[G2C]_A3.1_F3.1_[T7C]_T3.1 (ssRNA)
RNA: UUUGACAACUGAUCGUUCUUUCUUCUAUACAUUCUUUCUCGAUCAGUUGUCUUU
B14: Ic_S4_P3E.1_K3.1_C3.1_H3.1_A3.1_[A6C]_F3.1_[A8T]_T3.1 (ssRNA)
RNA: UUUGACAACUGAUCGUUCUUUCUUGUAUCUUUUCUUUCUCGAUCAGUUGUCUUU
B15: Ib_S4_P3E.1_K3.1_C3.1_H3.1_[G2A]_A3.1_F3.1_[T7A]_T3.1 (ssRNA)
RNA: UUUGACAACUGAUCGUUCUUUCUUAUAUAAAUUCUUUCUCGAUCAGUUGUCUUU
B16: Ib_S4_P3E.1_K3.1_C3.1_H3.1_[G2T]_A3.1_F3.1_[A8G]_T3.1 (ssRNA)
RNA: UUUGACAACUGAUCGUUCUUUCUUUUAUAUGUUCUUUCUCGAUCAGUUGUCUUU
B17: Ib_S4_P3E.1_K3.1_C3.1_H3.1_[A4C]_A3.1_F3.1_[A8T]_T3.1 (ssRNA)
RNA: UUUGACAACUGAUCGUUCUUUCUUGUCUAUUUUCUUUCUCGAUCAGUUGUCUUU
B18: Ib_S4_P3E.1_K3.1_C3.1_H3.1_[T1A]_[A4C]_A3.1_F3.1_T3.1 (ssRNA)
RNA: UUUGACAACUGAUCGUUCUUUCUAGUCUAUAUUCUUUCUCGAUCAGUUGUCUUU
B19: Ib_S4_P3E.1_K3.1_C3.1_H3.1_A3.1_F3.1_[T7C]_[A8C]_T3.1 (ssRNA)
RNA: UUUGACAACUGAUCGUUCUUUCUUGUAUACCUUCUUUCUCGAUCAGUUGUCUUU
B20: Ib_S4_P3E.1_K3.1_C3.1_H3.1_[G2C]_A3.1_F3.1_[A8C]_T3.1 (ssRNA)
RNA: UUUGACAACUGAUCGUUCUUUCUUCUAUAUCUUCUUUCUCGAUCAGUUGUCUUU
B21: Ib_S4_P3E.1_K3.1_C3.1_H3.1_A3.1_[T5A]_F3.1_[T7A]_T3.1 (ssRNA)
RNA: UUUGACAACUGAUCGUUCUUUCUUGUAAAAAUUCUUUCUCGAUCAGUUGUCUUU
B22: Ib_S4_P3E.1_K3.1_C3.1_H3.1_[G2C]_A3.1_F3.1_[T7A]_T3.1 (ssRNA)
RNA: UUUGACAACUGAUCGUUCUUUCUUCUAUAAAUUCUUUCUCGAUCAGUUGUCUUU
B23: Ib_S4_P3E.1_K3.1_C3.1_H3.1_A3.1_[A6G]_F3.1_[T7C]_T3.1 (ssRNA)
RNA: UUUGACAACUGAUCGUUCUUUCUUGUAUGCAUUCUUUCUCGAUCAGUUGUCUUU
B24: Ib_S4_P3E.1_K3.1_C3.1_H3.1_[T1C]_[A4C]_A3.1_F3.1_T3.1 (ssRNA)
RNA: UUUGACAACUGAUCGUUCUUUCUCGUCUAUAUUCUUUCUCGAUCAGUUGUCUUU
B25: Ib_S4_P3E.1_K3.1_C3.1_H3.1_[T1C]_A3.1_F3.1_[A8T]_T3.1 (ssRNA)
RNA: UUUGACAACUGAUCGUUCUUUCUCGUAUAUUUUCUUUCUCGAUCAGUUGUCUUU
B26: Ib_S4_P3E.1_K3.1_C3.1_H3.1_[T1G]_[A4C]_A3.1_F3.1_T3.1 (ssRNA)
RNA: UUUGACAACUGAUCGUUCUUUCUGGUCUAUAUUCUUUCUCGAUCAGUUGUCUUU
B27: Ib_S4_P3E.1_K3.1_C3.1_H3.1_A3.1_[A6T]_F3.1_[A8T]_T3.1 (ssRNA)
RNA: UUUGACAACUGAUCGUUCUUUCUUGUAUUUUUUCUUUCUCGAUCAGUUGUCUUU
B28: Ib_S4_P3E.1_K3.1_C3.1_H3.1_A3.1_[A6T]_F3.1_[T7C]_T3.1 (ssRNA)
RNA: UUUGACAACUGAUCGUUCUUUCUUGUAUUCAUUCUUUCUCGAUCAGUUGUCUUU
B29: Ib_S4_P3E.1_K3.1_C3.1_H3.1_A3.1_F3.1_[T7C]_[A8G]_T3.1 (ssRNA)
RNA: UUUGACAACUGAUCGUUCUUUCUUGUAUACGUUCUUUCUCGAUCAGUUGUCUUU
B30: Ic_S4_P3E.1_K3.1_C3.1_H3.1_A3.1_[T5A]_F3.1_[T7C]_T3.1 (ssRNA)
RNA: UUUGACAACUGAUCGUUCUUUCUUGUAAACAUUCUUUCUCGAUCAGUUGUCUUU
B31: Ib_S4_P3E.1_K3.1_C3.1_H3.1_[A4G]_A3.1_F3.1_[T7A]_T3.1 (ssRNA)
RNA: UUUGACAACUGAUCGUUCUUUCUUGUGUAAAUUCUUUCUCGAUCAGUUGUCUUU
B32: Ib_S4_P3E.1_K3.1_C3.1_H3.1_[T3C]_A3.1_F3.1_[A8T]_T3.1 (ssRNA)
RNA: UUUGACAACUGAUCGUUCUUUCUUGCAUAUUUUCUUUCUCGAUCAGUUGUCUUU
B33: Ic_S4_P3E.1_K3.1_C3.1_H3.1_A3.1_[T5C]_F3.1_[A8C]_T3.1 (ssRNA)
RNA: UUUGACAACUGAUCGUUCUUUCUUGUACAUCUUCUUUCUCGAUCAGUUGUCUUU
B34: Ic_S4_P3E.1_K3.1_C3.1_H3.1_A3.1_[A6T]_F3.1_[T7A]_T3.1 (ssRNA)
RNA: UUUGACAACUGAUCGUUCUUUCUUGUAUUAAUUCUUUCUCGAUCAGUUGUCUUU

In the data set the target is T1, PUF4 RNA-binding domain. Description: Mg; RNA-MaP; 20 mM Na-HEPES pH 7.4, 30 mM KOAc, 0.75 mM MgCl2, 0.1% Tween-20, 5% glycerol, 0.1 mg/mL BSA, 2 mM DTT; 25 C; 0.0125-409.6 nM protein. The following applies: tags: N-His6-TEV cleaved; C-SNAP kept, Cy3B-labelled; label: tethered on chip by stalled RNA polymerase.
As to ACAAACUUUAUCAUUAACAAAC (ssRNA) [Ib_S3_P5E.1_K5.1_C5.1_H5.1_[G2T]_A5.1_[T6C]_F5.1_T5.1], the Kd is greater than 2300 nM.
The molecule ACAAACUGAACUAUUAACAAAC (ssRNA) [Ib_S3_P5E.1_K5.1_C5.1_H5.1_[T3A]_A5.1_[T5C]_F5.1_T5.1] had a Kd greater than 2300 nM.
Take ACAAACCGUAUUUUUAACAAAC (ssRNA) [Ib_S3_P5E.1_K5.1_C5.1_H5.1_[T1C]_A5.1_[A7T]_F5.1_T5.1]: the Kd was greater than 2300 nM.
The result for ACAAACUGGACUAUUAACAAAC (ssRNA) [Ib_S3_P5E.1_K5.1_C5.1_H5.1_[T3G]_A5.1_[T5C]_F5.1_T5.1] reads greater than 2300 nM; that for ACAAACUCUAUAAUUAACAAAC (ssRNA) [Ib_S3_P5E.1_K5.1_C5.1_H5.1_[G2C]_A5.1_[T6A]_F5.1_T5.1], greater than 2300 nM.
The result for B1 reads 3.06 nM; that for B2, 2.11 nM.
For ACAAACAGUAUAUAACAAAC (ssRNA) [Ia_S3_P3E.1_K3.1_C3.1_H3.1_[T1A]_A3.1_F3.1_T3.1] the value was 2000 nM; for ACAAACAGUAUUAUUAACAAAC (ssRNA) [Ia_S3_P5E.1_K5.1_C5.1_H5.1_[T1A]_A5.1_F5.1_T5.1], 1980 nM; for ACAAACUUUAAUAUUAACAAAC (ssRNA) [Ib_S3_P5E.1_K5.1_C5.1_H5.1_[G2T]_A5.1_[T5A]_F5.1_T5.1], greater than 2300 nM.
In turn, ACAAACUGUCUUCUUAACAAAC (ssRNA) [Ib_S3_P5E.1_K5.1_C5.1_H5.1_[A4C]_A5.1_[A7C]_F5.1_T5.1] yielded a dissociation constant (Kd) of 2190 nM.
For ACAAACUGUCCUAUUAACAAAC (ssRNA) [Ib_S3_P5E.1_K5.1_C5.1_H5.1_[A4C]_A5.1_[T5C]_F5.1_T5.1] the value was 545 nM.
For ACAAACUAUAUAAUUAACAAAC (ssRNA) [Ib_S3_P5E.1_K5.1_C5.1_H5.1_[G2A]_A5.1_[T6A]_F5.1_T5.1] the value was 1050 nM; for ACAAACUAUAUAUUAACAAAC (ssRNA) [Ia_S3_P4E.1_K4.1_C4.1_H4.1_[G2A]_A4.1_F4.1_T4.1], 33.9 nM.
In turn, ACAAACUAUAGUAUUAACAAAC (ssRNA) [Ib_S3_P5E.1_K5.1_C5.1_H5.1_[G2A]_A5.1_[T5G]_F5.1_T5.1] came in with a Kd greater than 2300 nM.
For ACAAACAGUAUUUUUAACAAAC (ssRNA) [Ib_S3_P5E.1_K5.1_C5.1_H5.1_[T1A]_A5.1_[A7T]_F5.1_T5.1] the value was greater than 2300 nM.
In turn, B3 showed a Kd of 85.3 nM.
For B4 the value was 296 nM.
Turning to B5, the Kd turned out to be 25.7 nM.
The result for B6 reads greater than 2300 nM.
The result for B7 reads 2.45 nM.
Molecule B8 gave a Kd of 1640 nM.
In turn, B9 came in with a Kd of 38.2 nM.
In turn, B10 came in with a Kd greater than 2300 nM.
The molecule B11 showed a Kd of 28.4 nM.
B12 returned a Kd greater than 2300 nM.
B13 came in with a Kd of 610 nM.
Regarding B14, the Kd was 13.5 nM.
For B15 the value was greater than 2300 nM; for B16, greater than 2300 nM.
Molecule B17 gave a dissociation constant Kd of 289 nM.
B18 yielded a Kd greater than 2300 nM.
The result for B19 reads 28.9 nM; that for B20, greater than 2300 nM.
In the case of B21, the Kd was determined as 262 nM.
The result for B22 reads greater than 2300 nM.
In turn, B23 returned a Kd of 295 nM.
The result for B24 reads greater than 2300 nM.
B25 registered a Kd of 645 nM.
B26 came in with a Kd greater than 2300 nM.
In turn, B27 returned a Kd of 11.9 nM.
In turn, B28 came in with a Kd of 121 nM.
The result for B29 reads 60.4 nM; that for B30, 374 nM.
The result for B31 reads 35.5 nM.
B32 gave a Kd of 1510 nM.
In turn, B33 showed a Kd of 9.55 nM.
For B34 the value was 82 nM.
